In the Human Domainome abundance scans (Beltran et al. 2025) one finds abundance fitness data, which are given here for 36 substances.

± gives the uncertainty stated by the source.

The series in a line: abundance fitness (aPCA) (normalised: wild type 0, dead -1); higher = more abundant; growth selection in yeast, the domain comes from the species named. The settings on record: Homo sapiens.
The substance “DnaJ homolog subfamily B member 1 K21V, P25685” gave an abundance fitness of -0.078 ± 0.061.
“DnaJ homolog subfamily B member 1 K21W, P25685”: the abundance fitness is -0.152 ± 0.072.
Regarding “DnaJ homolog subfamily B member 1 K21Y, P25685”, the abundance fitness is -0.121 ± 0.088.
Substance “DnaJ homolog subfamily B member 1 K35A, P25685” returned an abundance fitness of -0.359 ± 0.082.
As for “DnaJ homolog subfamily B member 1 K35C, P25685”, the abundance fitness was -0.46 ± 0.11.
Consider “DnaJ homolog subfamily B member 1 K35D, P25685”, for which the abundance fitness is -0.193 ± 0.13.
In turn, “DnaJ homolog subfamily B member 1 K35E, P25685” registered an abundance fitness of -0.285 ± 0.088.
“DnaJ homolog subfamily B member 1 K35F, P25685” came in with an abundance fitness of -0.614 ± 0.11.
“DnaJ homolog subfamily B member 1 K35G, P25685”: the abundance fitness is -0.25 ± 0.083.
In the case of “DnaJ homolog subfamily B member 1 K35H, P25685”, the abundance fitness is -0.724 ± 0.12.
Substance “DnaJ homolog subfamily B member 1 K35I, P25685” came in with an abundance fitness of -0.504 ± 0.086.
Consider “DnaJ homolog subfamily B member 1 K35L, P25685”, for which the abundance fitness is -0.55 ± 0.071.
Turning to “DnaJ homolog subfamily B member 1 K35M, P25685”, the abundance fitness is -0.596 ± 0.1.
Regarding “DnaJ homolog subfamily B member 1 K35N, P25685”, the abundance fitness is -0.742 ± 0.13.
“DnaJ homolog subfamily B member 1 K35P, P25685” showed an abundance fitness of -0.365 ± 0.1.
The substance “DnaJ homolog subfamily B member 1 K35Q, P25685” came in with an abundance fitness of -0.213 ± 0.092.
The substance “DnaJ homolog subfamily B member 1 K35R, P25685” came in with an abundance fitness of 0.034 ± 0.092.
“DnaJ homolog subfamily B member 1 K35S, P25685” displayed an abundance fitness of -0.438 ± 0.064.
“DnaJ homolog subfamily B member 1 K35T, P25685”: the abundance fitness was -0.414 ± 0.095.
Next, “DnaJ homolog subfamily B member 1 K35V, P25685”: -0.396 ± 0.1; “DnaJ homolog subfamily B member 1 K35W, P25685”: -0.963 ± 0.095.
In turn, “DnaJ homolog subfamily B member 1 K35Y, P25685” came in with an abundance fitness of -0.632 ± 0.13.
The result for “DnaJ homolog subfamily B member 1 K37C, P25685” reads -0.267 ± 0.14; that for “DnaJ homolog subfamily B member 1 K37D, P25685”, -0.27 ± 0.2; that for “DnaJ homolog subfamily B member 1 K37E, P25685”, 0.117 ± 0.22.
The result for “DnaJ homolog subfamily B member 1 K37F, P25685” reads -0.645 ± 0.17; that for “DnaJ homolog subfamily B member 1 K37G, P25685”, -0.319 ± 0.11.
For the substance “DnaJ homolog subfamily B member 1 K37H, P25685”, the abundance fitness was 0.05 ± 0.13.
Consider “DnaJ homolog subfamily B member 1 K37I, P25685”, for which the abundance fitness was -0.304 ± 0.12.
In the case of “DnaJ homolog subfamily B member 1 K37L, P25685”, the abundance fitness is -0.286 ± 0.061.
“DnaJ homolog subfamily B member 1 K37M, P25685” came in with an abundance fitness of -0.41 ± 0.18.
The result for “DnaJ homolog subfamily B member 1 K37P, P25685” reads -0.306 ± 0.14; that for “DnaJ homolog subfamily B member 1 K37Q, P25685”, -0.2 ± 0.089; that for “DnaJ homolog subfamily B member 1 K37R, P25685”, -0.115 ± 0.066.
The result for “DnaJ homolog subfamily B member 1 K37S, P25685” reads -0.225 ± 0.065; that for “DnaJ homolog subfamily B member 1 K37T, P25685”, -0.228 ± 0.11.
